Experimental data reported in patent publication US20250249115A1, “COMBINATION THERAPY FOR TREATING TUMOR ANTIGEN EXPRESSING CANCERS” (Gilead Sciences, Inc., priority 2022, published 2025).

T1: Mouse Trop-2 (Mus musculus, UniProt Q8BGV3)
T1 sequence (Q8BGV3 25-317): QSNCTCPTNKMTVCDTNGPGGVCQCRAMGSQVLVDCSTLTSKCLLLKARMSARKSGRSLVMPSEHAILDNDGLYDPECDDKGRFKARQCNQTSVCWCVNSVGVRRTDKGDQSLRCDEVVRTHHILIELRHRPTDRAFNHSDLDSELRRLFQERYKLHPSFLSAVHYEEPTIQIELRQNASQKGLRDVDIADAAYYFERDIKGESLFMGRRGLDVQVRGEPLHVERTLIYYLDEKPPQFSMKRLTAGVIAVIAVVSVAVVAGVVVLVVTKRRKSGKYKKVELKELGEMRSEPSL

T2: Human Trop-2 (Homo sapiens, UniProt P09758)
T2 sequence (P09758 27-323): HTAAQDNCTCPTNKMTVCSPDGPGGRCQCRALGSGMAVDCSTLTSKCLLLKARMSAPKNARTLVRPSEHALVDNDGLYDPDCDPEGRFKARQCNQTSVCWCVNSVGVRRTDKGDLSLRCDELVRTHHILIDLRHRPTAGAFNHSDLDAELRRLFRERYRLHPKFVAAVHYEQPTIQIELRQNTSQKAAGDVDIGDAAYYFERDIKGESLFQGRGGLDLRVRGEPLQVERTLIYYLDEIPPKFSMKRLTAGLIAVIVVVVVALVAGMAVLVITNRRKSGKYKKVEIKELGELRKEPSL

B1: hRS7-hIgG1k (antibody, INN chains, looked up, V domains shown)
VH: QVQLQQSGSELKKPGASVKVSCKASGYTFTNYGMNWVKQAPGQGLKWMGWINTYTGEPTYTDDFKGRFAFSLDTSVSTAYLQISSLKADDTAVYFCARGGFGSSYWYFDVWGQGSLVTVSS
VL: DIQLTQSPSSLSASVGDRVSITCKASQDVSIAVAWYQQKPGKAPKLLIYSASYRYTGVPDRFSGSGSGTDFTLTISSLQPEDFAVYYCQQHYITPLTFGAGTKVEIKR
B2: Sacituzumab Govitecan (SG, Trodelvy) (antibody, INN chains, looked up, IgG1, V domains shown)
VH: B1 VH
VL: B1 VL
modifications: CL2A-SN-38, DAR 7.5

Experiments:
[1] = molecular target: T1, Mouse Trop-2; assay: Binding to mouse Trop-2 measured by surface plasmon resonance (SPR)
From the text: (§1) To engineer an anti-mouse Trop-2 ADC binding to mouse Trop-2 with proprieties similar to SG, we selected a commercially available anti-mouse Trop-2 rabbit antibody (Sino Biological, #50922-R064) and murinized it to obtain an anti-mouse Trop-2 IgG2a (Rab64/mG2a/mKap). Rab64 mAb was then coupled to CL2A linker/SN-38 payload at a high DAR (˜8-9).

[2] = molecular target: T2, Human Trop-2; assay: Binding to human Trop-2 measured by surface plasmon resonance (SPR)
From the text: as §1

[3] = molecular target: Human Trop-2 (human) (UniProt P09758); assay: SPR

| Molecule | KD [1] | Kd [2] [nM] | Kd [3] [nM] | koff [3] [s⁻¹] | kon [3] [M⁻¹ s⁻¹] |
| --- | --- | --- | --- | --- | --- |
| hRS7-hIgG1k: humanized monoclonal antibody hRS7 IgG1κ, which binds to Trop-2 | No binding detected | 0.328 | – | – | – |
| B1 | – | – | 0.328 | 0.000144 | 440000 |
| B2 | – | – | 0.361 | 0.000153 | 423000 |
